# Reference: paper PMC2860604
# T1: Jun bZIP ΔL543 (human, UniProt P05412 251-293)
# T1 chain: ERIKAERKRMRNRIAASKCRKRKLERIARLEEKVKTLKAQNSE
# T2: Jun bZIP ΔL54 (human, UniProt P05412 251-300)
# T2 chain: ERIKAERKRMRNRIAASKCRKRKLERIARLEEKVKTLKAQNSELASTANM
# T3: Jun bZIP ΔL5432 (human, UniProt P05412 251-286)
# T3 chain: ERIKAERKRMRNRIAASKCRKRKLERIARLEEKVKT
# T4: Jun bZIP ΔL54321 (human, UniProt P05412 251-279)
# T4 chain: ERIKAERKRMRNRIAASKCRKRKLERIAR
# B1: TRE duplex (dsDNA)
# DNA 1: CGCGTGACTCACCCC
# DNA 2: GGGGTGAGTCACGCG
# Tests used:
# [1] = target: Wildtype (WT) construct of bZIP domain of human Jun (human); assay: SEC-MALS
# Jun bZIP ΔL543 = target: T1, Jun bZIP ΔL543; assay: ITC
# Jun bZIP domain WT = Jun bZIP domain WT (human, UniProt P05412 252-315); assay: ITC
# Jun bZIP domain WT, sequence (P05412 252-315): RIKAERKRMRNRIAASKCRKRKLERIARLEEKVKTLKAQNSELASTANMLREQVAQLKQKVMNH
# Jun bZIP ΔL5 = Jun bZIP ΔL5 (human, UniProt P05412 251-307); assay: ITC
# Jun bZIP ΔL54 = target: T2, Jun bZIP ΔL54; assay: ITC
# Jun bZIP ΔL5432 = target: T3, Jun bZIP ΔL5432; assay: ITC
# Jun bZIP ΔL54321 = target: T4, Jun bZIP ΔL54321; assay: ITC
stoichiometry N [1],Molecule,Kd (Jun bZIP ΔL543) [µM],Kd (Jun bZIP domain WT) [µM],Kd (Jun bZIP ΔL5) [µM],Kd (Jun bZIP ΔL54) [µM],binding result (Jun bZIP ΔL5432),binding result (Jun bZIP ΔL54321)
2,Wildtype (WT) construct of bZIP domain of human Jun (domain or fragment),–,–,–,–,–,–
–,B1,14.8 ± 1.67,0.25 ± 0.01,1.26 ± 0.21,6.14 ± 0.27,no binding,no binding
